According to patent US20080182978A1, “ANTI-NGF ANTIBODIES AND METHODS USING SAME” (RINAT NEUROSCIENCE CORP, priority 2002, published 2008):

Assay: Dose response of E3 on body weight in arthritic rats (Example 9)
Assay type: in vivo, rat
Procedure: The ability of E3 to produce reduction in pain in arthritic rats was further investigated by examining the dose response relationship between E3 administration and pain reduction. Rats were treated with adjuvant to induce arthritis as described above. Ten rats not injected with adjuvant were used as non-arthritic controls. Fourteen days after adjuvant injection, animals were qualified into the study based on the criteria stated above, randomized into eight groups of ten rats and tested for the intensity of their vocalization response. They were then dosed on day 14 with saline, or 0.003 mg/kg, 0.01 mg/kg, 0.03 mg/kg, 0.1 mg/kg, 0.3 mg/kg, 1 mg/kg or 5 mg/kg of E3 antibody as described above. Animals were tested for their vocalization response on days 16, 18, 20, and 24. Animals were redosed with saline or the same dose of E3 on day 18 after the vocalization testing. Animals were also weighed each day, starting at day 14. Thus, animals were dosed twice with a given dose of antibody or saline on days 14 and 18, and assessed for pain five times, on days 14, 16, 18, 20 and 24. Data are shown in Tables 20-22 and in FIGS. 20-22.
The effect of treating animals with various doses of anti-NGF antibody E3 on body weight was statistically analyzed by using two-way ANOVA to compare the results obtained pairwise between arthritic animals treated with vehicle with those treated with a given dose of antibody E3. […] At all higher dose of E3, the difference between treated and untreated arthritic animals was significant (p= or <0.0001). […]

[1] = E3 0.1 mg/kg on days 14+18, day 17
[2] = E3 0.1 mg/kg on days 14+18, day 18
[3] = E3 0.1 mg/kg on days 14+18, day 20
[4] = E3 0.1 mg/kg on days 14+18, day 21
[5] = E3 0.1 mg/kg on days 14+18, day 23
[6] = E3 0.1 mg/kg on days 14+18, day 24
[7] = E3 0.3 mg/kg on days 14+18, day 14
[8] = E3 0.3 mg/kg on days 14+18, day 15
[9] = E3 0.3 mg/kg on days 14+18, day 16
[10] = E3 0.3 mg/kg on days 14+18, day 17
[11] = E3 0.3 mg/kg on days 14+18, day 18
[12] = E3 0.3 mg/kg on days 14+18, day 20
[13] = E3 0.3 mg/kg on days 14+18, day 21
[14] = E3 0.3 mg/kg on days 14+18, day 23
[15] = E3 0.3 mg/kg on days 14+18, day 24
[16] = E3 1.0 mg/kg on days 14+18, day 14
[17] = E3 1.0 mg/kg on days 14+18, day 15
[18] = E3 1.0 mg/kg on days 14+18, day 16
[19] = E3 1.0 mg/kg on days 14+18, day 17
[20] = E3 1.0 mg/kg on days 14+18, day 18
[21] = E3 1.0 mg/kg on days 14+18, day 20
[22] = E3 1.0 mg/kg on days 14+18, day 21
[23] = E3 1.0 mg/kg on days 14+18, day 23
[24] = E3 1.0 mg/kg on days 14+18, day 24
[25] = E3 5.0 mg/kg on days 14+18, day 14
[26] = E3 5.0 mg/kg on days 14+18, day 15
[27] = E3 5.0 mg/kg on days 14+18, day 16
[28] = E3 5.0 mg/kg on days 14+18, day 17
[29] = E3 5.0 mg/kg on days 14+18, day 18
[30] = E3 5.0 mg/kg on days 14+18, day 20
[31] = E3 5.0 mg/kg on days 14+18, day 21
[32] = E3 5.0 mg/kg on days 14+18, day 23
[33] = E3 5.0 mg/kg on days 14+18, day 24

B1: E3: humanized, affinity matured anti-NGF antagonist antibody; variable regions SEQ ID NO:1 and 2; human IgG2a (A330P331 to S330S331), kappa (antibody, V domains shown)
VH: QVQLQESGPGLVKPSETLSLTCTVSGFSLIGYDLNWIRQPPGKGLEWIGIIWGDGTTDYNSAVKSRVTISKDTSKNQFSLKLSSVTAADTAVYYCARGGYWYATSYYFDYWGQGTLVTVS
VL: DIQMTQSPSSLSASVGDRVTITCRASQSISNNLNWYQQKPGKAPKLLIYYTSRFHSGVPSRFSGSGSGTDFTFTISSLQPEDIATYYCQQEHTLPYTFGQGTKLEIKRT
modifications: human IgG2a constant (A330S/P331S) and kappa constant missing
Body weight normalized to day 14 (E3 0.1 mg/kg on days 14+18, day 16): 101.07 | Body weight normalized to day 0 [1]: 115.99 | Body weight normalized to day 14 [1]: 101.89 | Body weight normalized to day 0 [2]: 118.01 | Body weight normalized to day 14 [2]: 103.69 | Body weight normalized to day 0 [3]: 122.17 | Body weight normalized to day 14 [3]: 107.36 | Body weight normalized to day 0 [4]: 123.49 | Body weight normalized to day 14 [4]: 108.50 | Body weight normalized to day 0 [5]: 124.35 | Body weight normalized to day 14 [5]: 109.25 | Body weight normalized to day 0 [6]: 123.77 | Body weight normalized to day 14 [6]: 108.77 | Body weight normalized to day 0 (E3 0.3 mg/kg on days 14+18, day 0): 100.00 | Body weight normalized to day 0 (E3 0.3 mg/kg on days 14+18, day 1): 99.26 | Body weight normalized to day 0 (E3 0.3 mg/kg on days 14+18, day 2): 102.98 | Body weight normalized to day 0 (E3 0.3 mg/kg on days 14+18, day 3): 106.95 | Body weight normalized to day 0 (E3 0.3 mg/kg on days 14+18, day 4): 110.50 | Body weight normalized to day 0 (E3 0.3 mg/kg on days 14+18, day 7): 120.03 | Body weight normalized to day 0 (E3 0.3 mg/kg on days 14+18, day 8): 121.38 | Body weight normalized to day 0 (E3 0.3 mg/kg on days 14+18, day 9): 121.57 | Body weight normalized to day 0 (E3 0.3 mg/kg on days 14+18, day 10): 118.27 | Body weight normalized to day 0 (E3 0.3 mg/kg on days 14+18, day 11): 116.02 | Body weight normalized to day 0 [7]: 108.43 | Body weight normalized to day 14 [7]: 100.00 | Body weight normalized to day 0 [8]: 109.59 | Body weight normalized to day 14 [8]: 101.05 | Body weight normalized to day 0 [9]: 111.54 | Body weight normalized to day 14 [9]: 102.88 | Body weight normalized to day 0 [10]: 113.57 | Body weight normalized to day 14 [10]: 104.76 | Body weight normalized to day 0 [11]: 116.13 | Body weight normalized to day 14 [11]: 107.11 | Body weight normalized to day 0 [12]: 120.62 | Body weight normalized to day 14 [12]: 111.26 | Body weight normalized to day 0 [13]: 122.88 | Body weight normalized to day 14 [13]: 113.31 | Body weight normalized to day 0 [14]: 125.36 | Body weight normalized to day 14 [14]: 115.59 | Body weight normalized to day 0 [15]: 125.33 | Body weight normalized to day 14 [15]: 115.58 | Body weight normalized to day 0 (E3 1.0 mg/kg on days 14+18, day 0): 100.00 | Body weight normalized to day 0 (E3 1.0 mg/kg on days 14+18, day 1): 98.81 | Body weight normalized to day 0 (E3 1.0 mg/kg on days 14+18, day 2): 103.18 | Body weight normalized to day 0 (E3 1.0 mg/kg on days 14+18, day 3): 106.52 | Body weight normalized to day 0 (E3 1.0 mg/kg on days 14+18, day 4): 110.52 | Body weight normalized to day 0 (E3 1.0 mg/kg on days 14+18, day 7): 121.54 | Body weight normalized to day 0 (E3 1.0 mg/kg on days 14+18, day 8): 124.28 | Body weight normalized to day 0 (E3 1.0 mg/kg on days 14+18, day 9): 125.60 | Body weight normalized to day 0 (E3 1.0 mg/kg on days 14+18, day 10): 124.11 | Body weight normalized to day 0 (E3 1.0 mg/kg on days 14+18, day 11): 121.27 | Body weight normalized to day 0 [16]: 111.72 | Body weight normalized to day 14 [16]: 100.00 | Body weight normalized to day 0 [17]: 112.30 | Body weight normalized to day 14 [17]: 100.53 | Body weight normalized to day 0 [18]: 115.00 | Body weight normalized to day 14 [18]: 102.95 | Body weight normalized to day 0 [19]: 118.08 | Body weight normalized to day 14 [19]: 105.74 | Body weight normalized to day 0 [20]: 121.16 | Body weight normalized to day 14 [20]: 108.46 | Body weight normalized to day 0 [21]: 126.90 | Body weight normalized to day 14 [21]: 113.57 | Body weight normalized to day 0 [22]: 130.41 | Body weight normalized to day 14 [22]: 116.71 | Body weight normalized to day 0 [23]: 137.81 | Body weight normalized to day 14 [23]: 123.35 | Body weight normalized to day 0 [24]: 138.93 | Body weight normalized to day 14 [24]: 124.41 | Body weight normalized to day 0 (E3 5.0 mg/kg on days 14+18, day 0): 100.00 | Body weight normalized to day 0 (E3 5.0 mg/kg on days 14+18, day 1): 98.25 | Body weight normalized to day 0 (E3 5.0 mg/kg on days 14+18, day 2): 101.82 | Body weight normalized to day 0 (E3 5.0 mg/kg on days 14+18, day 3): 105.47 | Body weight normalized to day 0 (E3 5.0 mg/kg on days 14+18, day 4): 109.29 | Body weight normalized to day 0 (E3 5.0 mg/kg on days 14+18, day 7): 119.77 | Body weight normalized to day 0 (E3 5.0 mg/kg on days 14+18, day 8): 121.96 | Body weight normalized to day 0 (E3 5.0 mg/kg on days 14+18, day 9): 123.04 | Body weight normalized to day 0 (E3 5.0 mg/kg on days 14+18, day 10): 120.00 | Body weight normalized to day 0 (E3 5.0 mg/kg on days 14+18, day 11): 117.97 | Body weight normalized to day 0 [25]: 111.58 | Body weight normalized to day 14 [25]: 100.00 | Body weight normalized to day 0 [26]: 113.33 | Body weight normalized to day 14 [26]: 101.61 | Body weight normalized to day 0 [27]: 116.06 | Body weight normalized to day 14 [27]: 104.09 | Body weight normalized to day 0 [28]: 119.14 | Body weight normalized to day 14 [28]: 106.85 | Body weight normalized to day 0 [29]: 122.14 | Body weight normalized to day 14 [29]: 109.53 | Body weight normalized to day 0 [30]: 128.60 | Body weight normalized to day 14 [30]: 115.32 | Body weight normalized to day 0 [31]: 132.82 | Body weight normalized to day 14 [31]: 119.11 | Body weight normalized to day 0 [32]: 140.79 | Body weight normalized to day 14 [32]: 126.36 | Body weight normalized to day 0 [33]: 141.77 | Body weight normalized to day 14 [33]: 127.25 | change in body weight vs vehicle-treated arthritic animals (two-way ANOVA) (data normalized to day 0, 0.03 mg/kg (p<0.002)): significant change in body weight | change in body weight vs vehicle-treated arthritic animals (two-way ANOVA) (data normalized to day 14, 0.03 mg/kg (p<0.005)): significant change in body weight | weight loss compared with saline treated arthritic rats (rat, in vivo): less apparent weight loss than saline treated arthritic rats
